Source: publication PMC6511732
Several values for one entry are separate records, joined by “and”; a condition that tells them apart may be missing. Equal entries are not always repeated. Where two headings read alike, the source gives them in different places.

Legend:
Experiment in all cases: native MS
[1] = biological target: Phycocyanin αβ-heterodimer
[2] = biological target: Phycocyanin αβ-heterodimer; remark: listed apart in the source
[3] = biological target: Phycocyanin α6β6γ complex
[4] = biological target: R-phycoerythrin α6β6γ complex
Phycocyanin α6β6 complex = biological target: Phycocyanin α6β6 complex

For Phycocyanin αβ-heterodimer (complex), the stoichiometry N [1] was 6 and the stoichiometry N [2] was 3 and 6.
In the case of Phycocyanin α6β6γ complex, the stoichiometry N [3] is reported as 2.
With R-phycoerythrin α6β6γ complex the stoichiometry N [4] was 2.
Phycocyanin α6β6 complex gave a stoichiometry N (Phycocyanin α6β6 complex) of 2.
